The DeepSol protein solubility set

Experiment: soluble on expression in E. coli; label from the status in PepcDB or PDB records
In the case of “MPVAVMADNAFSFRKLLDQCENQELEAPGGIATPPVYGQLLALYLLQNDMNNARYLWKRIPPAIKSANSELGGIWSVGQRIWQRDFPGIYTTINAHQWSETVQPIMEALRDATRRRAFALVSQAYTSIIADDFAAFVGLPVEEAVKGVLEQGWQADSTTRMVLPRKPAPGALDVSLNRFIPLSEPAPVPPIPNEQQLARLTDYVAFLEN”, the “soluble on expression in E. coli” value is reported as “not soluble”. For “MGSDKIHHHHHHMDKIRVIELGSNISAPLVGTILADLGAEVIKVEPPPYGDDRRRVKPEINGISVYFASTNRGKKSVVINLKSDEGYEIFQRLVKTADVIVTNYRPSALKRLKVDYESVKRINPKIIYCSITGFGNLTEEADRPAYDPIILALSGLMDMTGEENPVKFATSISDITTGLLATVMILWALNKGGPTFIDVPMIYTQFYLTLEDAYMYLNTGKVPKRMGSAHRYLVPYQAFKVVDGYIYVAVFNDEQYLKLCKALNREDLCKFDTLQKRVENRDYLIKELGKIFEKNTRDYWVDLLSKADVPVAPVLSLEQAFKKYGNRLVYEIEGVKYIDFPINITSNKSKAPRLGENTKEVLLELGYSEGEINRLAEKGIIMLI”, the “soluble on expression in E. coli” value was “not soluble”. In the case of “MAHHHHHHMQICPEGKGDSAASELLRFSDADGAVVREVLLDALCRVVPASLFSDAAALENVDEAELCVLLRYATEIQEQNAAFFQVMGGSEVMSRPERAATTEGRRVLQHFTRLVLARCRHLLHHHDGPPPTLLSGDAENIPFVDLQLYADHNHPEVRVHQKIGRANAQGLRYAGLQSTASTTMAELLSRLESANQRMAAGARGLRCDLLRHVAQKAALGKSKLTLEDVTRALPLLAAQMGKTSEQQVKSTYERLLTAMSTTIAVALQQPQKPACILALLEGLAGCHYTPSSYKLLEMVMLRMMMRGAFTLSDAGRCLIAMLQVVGPQKVSQSVKQAIAMRVVAAVDARSDSTAADVLAVLRALRYSCYSSFASLVCLVSKSPLMGNTANWQPSEHVRYAVLLAAAAAALETEANSELGIAVSTTARERLLLGLSPTHPPSAVPPHSPACVGEDAYQECVTACAALDVSPVPPALTAWAHADIDARPVHSLCTPALAVSTMEALEAMSLAPSRWYTAYVNYLTDTLEQMQRRPLLEDDAETAVRCLFLQRAPGAVTRLASVLLEHEVDRLDQTLTRGAVVRDDARAPPVCTFQQRSLERQTSEGETETRLLRYCAALQHASREMLSTRSAEV”, the “soluble on expression in E. coli” value is reported as “not soluble”. For “MRGSHHHHHHTDPALRASSFQFEQIGVIRSPYKEKFAVPRQPGLVKSANGELHLIAPYNQADAVRGLEAFSHLWILFVFHQTMEGGWRPTVRPPRLGGNARMGVFATRSTFRPNPIGMSLVELKEVVCHKDSVILKLGSLDLVDGTPVVDIKPYLPFAESLPDASASYAQSAPAAEMAVSFTAEVEKQLLTLEKRYPQLTLFIREVLAQDPRPAYRKGEETGKTYAVWLHDFNVRWRVTDAGFEVFALEPRGLCGR”, the “soluble on expression in E. coli” value was “soluble”. In the case of “MGHHHHHHSHVFDRPDLGDQAILVSLDFGDADYQESVAECAELVRGSKVEILGMVQGKRQRPDAALFAGKGKVEEIASMVRATGANVVIFNHALSPGQERNLERALQCRVIDRNSLILDIFAQRARSHEGKLQVELAQLSHLSTRLVRGWTHLERQKGGVGLRGPGETQLETDRRLLGIRVKALKDRLAQVQKQRNTQRRSRNRAGVSSVSIVGYTNAGKSTLFNALTKANIYAADQLFATLDTTSRKLFLNHDCSVVLSDTVGFIRDLPHTLVAAFRATLEETVQANLLLHVVDCANETRDAQIDEVNKVLAEIDADGIPQLIVWNKGDLRELPPEIERDEDGVAVAVRVSALKGEGLELLREAIAERVQPFANNHKEPYEHVAE”, the “soluble on expression in E. coli” value is reported as “soluble”. In the case of “MAFERQGKIEKKISYSLFLNGPNVHFGSILFGAVDKSKYAEELCTHPMRQAYNTLDSNSRIIITVQSVAILDGKLVW”, the “soluble on expression in E. coli” value is reported as “not soluble”. In the case of “MSLKIIVIGGGAAGMSAASKAKRVNPDSEVIVVESGSYVSYAECGIPYYLQGVVGHIEDLLHYPLSEFTEKRGIKVLLHTTVTRIDTLHSSVLLNNGDVLKYDRLIIATGSRPKPIDVISDRTISIRSLESAMRARNLIEKSKDVTIVGAGVLGVELASVLAESGKNVKVISKYDRVLPQLDEDIGKIFHEYFSSRIDVQKQSSLKSAEEDRGRVKITTSVDDHECDAVIYATGIIPNSEIAVEAGIKTGDRNAILTNGHMETSEPGVYAAGDVATVRNIVTGLDEMMPLAQIANKAGRVAGSNASNSEMVFPGALGTTLVKVFDYEVGFTGINESRAKALGIPYEKTLIKAKSRANYYPGKQDIYVKIIYGKNDKRLLGAQVIGTDGAAWRLNTIATAIFGGFKVSDLFYDDLGYTPPFGPVWDSIVIAGSVSMREGHHHHHH”, the “soluble on expression in E. coli” value is reported as “soluble”. In the case of “MDDPSITPTEKCRFYLGITLRDDTKARPVPGIMQIPGGRYAVFRHTGSYSSLHKVYRSIYEEWFPKSKYHPQSTFSFEMYMNHPSTTETSELLTEIYIPVIRK”, the “soluble on expression in E. coli” value is reported as “not soluble”. In the case of “MTMKMSGTEIQKHFKTLKGTIAITSIEDGDGSHVVWTFDFEKVHKDIDDSHSIIDETVKYLKELDEVLLKFHE”, the “soluble on expression in E. coli” value is reported as “soluble”. With “MYKKRQRGEREREIKVEFAMHISIKTLEGKRIKLEVEDSSNTIDLKIHGEPTRELVVDLSPTPDTGAIMMIFIKTLTGRTNTYEVKGSDTIRELKAKHEEKEGIPVEQQRLIFQGRVLEDSKAISDYNIKHESTLHITLHQCGC” the “soluble on expression in E. coli” value was “soluble”. With “MGSDKIHHHHHHMKNNRINIHSQQYMETMARLMSEALESPEGMRALAAAIAAPIEQEIKRKEISSLLLTRHTLPKGERPIYQKKPTVKAHWISKDGEAQEQELGKDEVEFPTNRIHSNPMVDISVLKHGNIGTLMDIQTGAASSIRKEMDSRTITVISSAIPAANTVEVTGDKVTEEALNEAISIIEDLELSVKYIVLRGRRFNDMRSWNLDPQTKLELRQKGVIKNYGTGGILLTAAMPMDEIIIVPDEEVGKLPVRENLKTESIDQKTRFKTGWLVWSEIGQGITRPDILAKVKLVP” the “soluble on expression in E. coli” value was “not soluble”. With “MAHHHHHHMEDTINVFGRGTPAGEAIYRCYVAPSKPSTLDPQLAALLARRRQEREAAEAAQAHPKPIPKSKAPVHRPRVGMGKRPTEEEYARWRLQHIPHRRSKAAIEAEEEAHRWVPPPVSERFARPAITDAEKDRLADVMAYGAELPKPKEFTGVQRARFHRLEPRAELEDRFTKLRQTAQEVQSELAQLRQSAPGAGASLPSGGRVVESVSDPQARLSQRRSCGGGGDPATASPCPLASAASPGAAAARDVLSIGGTRVGRQGDSKMSTIERCRQERELQSHLGTVIAEMEAVDRELNRLPISS” the “soluble on expression in E. coli” value was “soluble”. In the case of “GSHMSQPRPLLSPPETEEQLLAQAQQLSGYTLGELAALVGLVTPENLKRDKGWIGVLLEIWLGASAGSKPEQDFAALGVELKTIPVDSLGRPLETTFVCVAPLTGNSGVTWETSHVRHKLKRVLWIPVEGERSIPLAQRRVGSPLLWSPNEEEDRQLREDWEELMDMIVLGQVERITARHGEYLQIRPKAANAKALTEAIGARGERILTLPRGFYLKKNFTSALLARHFLIQ”, the “soluble on expression in E. coli” value is reported as “soluble”. With “MEKYQALLANNVENTAKEALHQLAYTGREYNNIQDQIETISDLLGHSQSLYDYLREPSKANLTILENMWSSVARNQKLYKQIRFLDTSGTEKVRIKYDFKTSIAGPSLILRDKSAREYFKYAQSLDNEQISAWGIELERDKGELVYPLSPSLRILMPISVNDVRQGYLVLNVDIEYLSSLLNYSPVRDFHIELVKHKGFYIASPDESRLYGDIIPERSQFNFSNMYPDIWPRVVSEQAGYSYSGEHLIAFSSIKFVSNEPLHLIIDLSNEQLSKRATRDINDLIQESLEHHHHHH” the “soluble on expression in E. coli” value was “soluble”. For “MSLGSGHAGKARSAVTTTDADWKPVADALGRSGKLGDNNTAYRINLPRNDLHITSYGVDIKPGLSLGGYAAFARYDNNETLLMGDLVITEEELPKVTDALQAHGIAQTALHKHLLQQDPPVWWTHIHGMGDAARLAQGLKAALDATTIGPPTPPPARQPPVDIDVAGVDQALGRKGTQDGGLMKYSIPRKDTIIEDGHVLPAVSLNLTTVINFQPVGRGRAAINGDFILIAPEVQEVIRAMRAGNITIVELHNHGLTEEPRLFYMHYWAVDDAVTLARALRPAMDATNLQSEGHHHHHH”, the “soluble on expression in E. coli” value was “soluble”. In the case of “MGSSHHHHHHSSGLVPRGSHMDFEEDYDAEFDDNQEGQLETPFPSVAGADDGDNDNDDSVAENMKKKQKREAVVDDGSENAFGIPEFTRKDKTLEEILEMMDSTPPIIPDAVIDYYLTKNGFNVADVRVKRLLALATQKFVSDIAKDAYEYSRIRSSVAVSNANNSQARARQLLQGQQQPGVQQISQQQHQQNEKTTASKVVLTVNDLSSAVAEYGLNIGRPDFYR”, the “soluble on expression in E. coli” value is reported as “soluble”. In the case of “NKPSLLLYIHGFNSSPLSHKAQVMAEYCKVHRPDIKVIVPRLPSYPSQAAEFLVQLVEEYKDTHQIGLVGSSLGGYLSTWLNHQYGFKAALVNPAVKPYELLADYLGKQVNPYTQEEYFLEEKHMEELLALQVETLHSVDDLWLLQQEGDEVLDYRQAVDKYLACKQTIEKGGDHSFVNFERYPEQIIQFLN”, the “soluble on expression in E. coli” value is reported as “not soluble”. In the case of “MGSDKIHHHHHHMLEEGEHVLVAVSGGIDSMTLLYVLRKFSPLLKIKITAAHLDHRIRESSRRDREFVERICRQWNIPVETSEVDVPSLWKDSGKTLEEIAREVRYDFLKRTAKKVGASKIALAHHKNDLLETVVHRLIRGTGPLGLACISPKREEFIRPFLVFKRSEIEEYARKNNVPYVVDETNYNVKYTRNFIRHRIVPLMKELNPTVEDAVYRLVSVTHLLRNFVERTVQDFVERNVYFYKDYAVFVEPEDLFLFLEVTRWVLKEMYGRVPEYEKLIGTLKSKRVELWSGIFVERSFGYVAVGKTVFKKKYRVEVKGDMLEMEGFKIRVVNNRNDMKFWVRNRKEGDRIIVNGRERKLKDVFIEKKVPTFYRDRVPLLVDEEDRVLWVPGIARSDFLPEDVVVELLEYPVGYVKGGTYFEQV”, the “soluble on expression in E. coli” value is reported as “not soluble”. For “MSLPSEISDKATVPIEIGLTAAIVAIEANQPMILTASGDGGGSLAGLPYGPFDAITHRTLEIGLRAWVEEQTGLRLGYVEQLYTFGDRGRHARLGDTEVHVASIGYLALTRAADNAARAAGATFEPWYRFFPWEDWREQQPAIIARDIIPELTAWAAQAEEPGMARALARKDRVRLFFGVDGAPWDEERVLDRYELLYEAGLIEEARRDGRPAALSRSKAPTLGVAMRFDHRRILATAIARLRAKLKYRPVVFELLPPEFTLTELQHTVEAISGRHLHKQNFRRLVEAGALVEPTGEM”, the “soluble on expression in E. coli” value was “not soluble”. In the case of “MIDFACKEFKVEDVIKCALNLTKADLNVMKSFLNEPDRWIDTDALSKSLKLDVSTVQRSVKKLHEKEILQRSQQNLDGGGYVYIYKIYSKNQIRNIIQKIVQSWADRLGQELKEWENGGE”, the “soluble on expression in E. coli” value is reported as “not soluble”. In the case of “MQFLHILLLSILSLIFISSVQAVPSDQDIEALMGLQDQVNAFLGESNMSPEAKKKIEDMMAKKQAAIENSLGRK”, the “soluble on expression in E. coli” value is reported as “soluble”. With “MGSDKIHHHHHHMLSSAEKVKGQGVASAYRELVNLLEERYKNEIDMKINSFEKSDITHYHTVDFRFFLSTFFKKKRGVRVGYVHFLPETMEGSLKLPWIARVVFYKYLIGFYKRMDEIVVVNPSFIPKLTAYNIPAEKIHYIPNFVSKKSFFPISKGEKELARAKYEIPADKFTVIGIGQVQHRKGVLDFIEVAKQLPDVQFVWAGGFSFGKITSGYEELKKIYDNPPSNVKFIGIVDRSEMNSCINMADVFFMPSYNELFPMAILEAMSCDVPILLRNLDLYEEILDGYYVKEVDNPGFIRAIERLENDTNYYNEMLQASKRGAAYYSEDRLAEIWLDFYQGLLTKE” the “soluble on expression in E. coli” value was “not soluble”.
